Columns and labels:
Details in all cases: protein: recombinant; tags: His tag (Ni-NTA, pET28a); blunt
PARP1 ΔZn1 = PARP1 ΔZn1 (Homo sapiens, UniProt P09874 1-1014, del2-96); assay: stopped-flow fluorescence anisotropy; K1, first DNA; kinetically derived; 50 mM Tris-HCl pH 7.5, 50 mM NaCl, 1 mM MgCl2, 0.1 mM EDTA, 0.01% IGEPAL; 20 °C (stated for association)
PARP1 wild-type = PARP1 wild-type (Homo sapiens, UniProt P09874 1-1014); assay: as above
PARP1 W589A = PARP1 W589A (Homo sapiens, UniProt P09874 1-1014, W589A); assay: stopped-flow fluorescence anisotropy; K1; kinetically derived, Scheme 2 (no ternary complex); 50 mM Tris-HCl pH 7.5, 50 mM NaCl, 1 mM MgCl2, 0.1 mM EDTA, 0.01% IGEPAL; 20 °C (stated for association)
PARP1 W589A, sequence (P09874 whole entry W589A): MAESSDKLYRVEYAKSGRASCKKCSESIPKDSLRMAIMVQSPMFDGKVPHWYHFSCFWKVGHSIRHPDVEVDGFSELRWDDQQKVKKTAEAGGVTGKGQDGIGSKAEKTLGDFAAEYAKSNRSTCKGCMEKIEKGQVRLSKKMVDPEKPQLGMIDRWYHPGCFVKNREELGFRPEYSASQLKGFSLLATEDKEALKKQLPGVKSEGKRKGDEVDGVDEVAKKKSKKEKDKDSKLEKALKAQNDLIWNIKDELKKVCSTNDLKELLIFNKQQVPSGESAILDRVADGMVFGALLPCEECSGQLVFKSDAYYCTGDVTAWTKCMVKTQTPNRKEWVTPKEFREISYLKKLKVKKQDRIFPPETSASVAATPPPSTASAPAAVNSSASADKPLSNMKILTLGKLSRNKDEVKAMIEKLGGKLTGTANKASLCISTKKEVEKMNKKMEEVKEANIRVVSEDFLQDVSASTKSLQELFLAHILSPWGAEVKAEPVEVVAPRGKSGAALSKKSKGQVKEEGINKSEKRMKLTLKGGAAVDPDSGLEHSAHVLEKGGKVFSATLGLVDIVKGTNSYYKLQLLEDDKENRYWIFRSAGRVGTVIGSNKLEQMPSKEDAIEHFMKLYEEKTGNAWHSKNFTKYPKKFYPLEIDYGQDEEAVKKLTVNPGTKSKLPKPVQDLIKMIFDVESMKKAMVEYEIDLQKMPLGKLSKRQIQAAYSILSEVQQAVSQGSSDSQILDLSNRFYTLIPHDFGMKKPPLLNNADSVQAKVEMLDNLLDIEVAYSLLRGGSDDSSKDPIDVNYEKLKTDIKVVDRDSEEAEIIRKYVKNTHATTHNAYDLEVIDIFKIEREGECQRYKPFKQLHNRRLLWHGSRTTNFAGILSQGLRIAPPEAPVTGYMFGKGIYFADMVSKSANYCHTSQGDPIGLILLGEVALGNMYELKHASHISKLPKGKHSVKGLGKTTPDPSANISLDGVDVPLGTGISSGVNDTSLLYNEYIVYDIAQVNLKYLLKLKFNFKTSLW

PARP1 ΔZn1, sequence (P09874 other isoform, or with tags, fused parts or gaps del2-96 | mutant): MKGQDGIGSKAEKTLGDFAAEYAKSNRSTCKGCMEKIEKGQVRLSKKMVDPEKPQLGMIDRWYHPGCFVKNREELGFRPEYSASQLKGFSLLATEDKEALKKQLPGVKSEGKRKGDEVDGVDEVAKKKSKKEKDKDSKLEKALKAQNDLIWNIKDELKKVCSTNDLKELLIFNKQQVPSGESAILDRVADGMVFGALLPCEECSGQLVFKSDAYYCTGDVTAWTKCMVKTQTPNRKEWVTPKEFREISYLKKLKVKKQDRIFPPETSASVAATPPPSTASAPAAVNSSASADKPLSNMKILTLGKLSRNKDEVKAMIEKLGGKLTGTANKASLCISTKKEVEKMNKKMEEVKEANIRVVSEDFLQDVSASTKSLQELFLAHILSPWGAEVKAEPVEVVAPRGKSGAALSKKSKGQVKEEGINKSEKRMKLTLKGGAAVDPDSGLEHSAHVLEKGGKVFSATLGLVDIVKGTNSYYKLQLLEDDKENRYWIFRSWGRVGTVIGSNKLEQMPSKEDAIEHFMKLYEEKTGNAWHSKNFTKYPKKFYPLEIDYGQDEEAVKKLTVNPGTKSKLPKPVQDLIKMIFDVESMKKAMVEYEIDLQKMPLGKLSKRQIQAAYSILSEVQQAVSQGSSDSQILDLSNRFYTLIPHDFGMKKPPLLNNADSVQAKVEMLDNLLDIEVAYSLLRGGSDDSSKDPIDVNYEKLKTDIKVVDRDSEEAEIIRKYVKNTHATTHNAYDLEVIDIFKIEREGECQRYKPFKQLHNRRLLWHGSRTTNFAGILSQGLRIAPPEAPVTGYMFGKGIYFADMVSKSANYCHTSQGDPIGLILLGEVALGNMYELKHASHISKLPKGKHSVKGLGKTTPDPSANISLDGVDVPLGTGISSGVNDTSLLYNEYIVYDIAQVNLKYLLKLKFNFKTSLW
PARP1 wild-type, sequence (P09874 whole entry): as the sequence (P09874 whole entry W589A) above, with A589W counted along it

B1: p18mer* (dsDNA)
DNA 1: GGGTTGCGGCCGCTTGGG
DNA 2: CCCAAGCGGCCGCAACCC
modifications: 5'-phosphate
Kd (PARP1 ΔZn1): < 2.7 nM | Kd (PARP1 wild-type): < 3.2 nM | Kd (PARP1 W589A): 4.9 ± 1.1 nM

— publication doi:10.1101/317651, “Poly(ADP-ribose) polymerase 1 Searches DNA via a ‘Monkey Bar’ Mechanism”
